Assay results: patent US20170304444A1 (Dana-Farber, published 2017)

Assays:
[1] = biological target: T1, glucocorticoid-induced tumor necrosis factor receptor (GITR) (human, UniProt Q9Y5U5 26-241); assay: BLI
T1 chain: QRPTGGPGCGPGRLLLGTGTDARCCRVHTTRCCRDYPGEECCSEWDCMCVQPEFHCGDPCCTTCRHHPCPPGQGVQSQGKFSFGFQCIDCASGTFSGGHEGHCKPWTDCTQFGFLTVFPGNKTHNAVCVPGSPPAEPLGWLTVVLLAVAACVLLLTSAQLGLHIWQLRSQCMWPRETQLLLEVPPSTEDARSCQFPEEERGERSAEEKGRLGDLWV

[2] = biological target: T2, glucocorticoid-induced tumor necrosis factor receptor (GITR) (human, UniProt Q9Y5U5 26-241); assay: flow cytometry on GITR-expressing 293T cells, FITC anti-human Fc detection
T2 construct: whole, on cells; also called GITR expressing 293T cells
T2 sequence (looked up): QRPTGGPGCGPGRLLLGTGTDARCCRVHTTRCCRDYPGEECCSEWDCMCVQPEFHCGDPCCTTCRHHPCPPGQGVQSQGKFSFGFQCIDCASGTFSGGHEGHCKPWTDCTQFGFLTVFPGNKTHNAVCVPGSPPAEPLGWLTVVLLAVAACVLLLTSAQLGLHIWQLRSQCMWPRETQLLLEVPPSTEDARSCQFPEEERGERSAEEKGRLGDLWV

[3] = biological target: T1, glucocorticoid-induced tumor necrosis …; assay: flow cytometry, GITR-expressing 293T cells

B1: mAb #7-192 (antibody, V domains shown)
VH: EVQLVESGAEVKKPGASVKVSCKTSGYTFTDHYIHWVRQAPGQGLEWMGWINPSSGGTEYAQKFQGRVTMTRDTPISTAYMDLSGLRSDDTAVYYCARETIGGWNALDVWGQGTLVTVSS
VL: MPVLTQPPSVSVAPGQTARITCGGHKIGTKSVHWYQQKPGQAPVLVVYDDRDRPSGIPERFSGSNSGGTATLTISRVEAGDEADYYCQVWDSNSDHVVFGGGTKLTVLS
- Kd [1]: 3.13 nM
- binding result [2]: binds
- EC50 [3]: 19.3 nM

B2: mAb #12-46 (antibody, V domains shown)
VH: EVQLVQSGAEVKKPGASVKVSCKASGYTFTGYYMHWVRQAPGQGLEWMGWINPKTGDTNYAQKFQGRVALSRDTSFNTAYMDLSSLRSDDTAVYYCAREGLSTSSPLDYWGQGTLVTVSS
VL: QPGLTQPPSVSVAPGQSAKITCGENELATNIVHWYQQKPGQAPVLVIYHDNDRPSGIPERFSGSNAGNTATLTISRVEAGDEADFYCQLWDSASDQVVFGGGTTLTVLG
- Kd [1]: 5.07 nM
- binding result [2]: binds
- EC50 [3]: 72.4 nM

B3: mAb #13-169 (antibody, V domains shown)
VH: EVQLVQSGAEVKRPGASLKVSCKASGYTFTSHYIHWVRQAPGQGLEWMGWINTGNGDTRYSQRFQGRVTVTRDTSASTVYMELSSLRSEDTAVYYCARESSSSWFVAFDVWGQGTTVTVSS
VL: QPVLTQPPSVSLAPGQTARITCSEKNIRSKRVHWYQQKPGQAPVLVMYSDNGRRSGIPDRFSGSNSGNTATLTITRVEAGDEGDFYCQVWDPITDQVVFGGGTKLTVLG
- Kd [1]: 3.21 nM
- binding result [2]: binds
- EC50 [3]: 47 nM

B4: mAb #17-60 (antibody, V domains shown)
VH: EVQLVESGAEVKKPGASVKVSCKTSGYTFTDHYIHWVRQAPGQGLEWMGWINPSSGGTEYAQKFQGRVTMTRDTPISTAYMDLSGLRSDDTAVYYCARETIGGWNALDVWGQGTLVTVSS
VL: QPVLTQPPSASGTPGQRVTISCSGSSSNIGINTVNWYQQLPRTPPKLLIYTNNQRPSGVPDRFSGSKSDTSASLAISGLQSEDEADYYCAAWDDTLNGPLFGGGTKVTVLG
- Kd [1]: 1.14 nM
- EC50 [3]: 15.1 nM

B5: mAb #14-182 (antibody, V domains shown)
VH: QVQLVQSGAEVKQPGSSVKVSCKASGYTFTGYYMHWVRQAPGEGLEWLGWINPHSGGTNYAQKFQGRVTITADKSTSTAYMELSSLRSEDTAVYYCAREIVVVTAPAAAAMDVWGQGTLVTVSS
VL: QSVLTQPPSASGSPGQSVTISCTGSSSDVAIYDRVSWYQQPPGTAPKLILYDVHDRPSGVPDRFSGSKSGNTASLTISGLQAEDEADYYCSSYTTSGTFVFGSGTKVTVLG
- Kd [1]: 1.82 nM
- binding result [2]: binds
- EC50 [3]: 20.5 nM

B6: mAb #15-68 (antibody, V domains shown)
VH: EVQLVQSGAEVKKPGASVNVSCKASGYTFTGYYMHWVRQAPGQGLEWMGWINPNSGGTNYAQKFQGRVTVTTDTSNSTAYMELNRLKSDDTAVYYCAREGSGDLDSLYMDVWGKGTMVTVSS
VL: SYELTQPPSVSVAPGQTARITCGANNIGSKSVHWYQQKPGQAPVLVVYDDSDRPSGIPERFSGSNSGNTATLTITRVEAGDEADYYCQLWDGGSDVVFGGGTKLTVLG
- Kd [1]: 3.81 nM
- EC50 [3]: 26.5 nM

B7: mAb #5-139 (antibody, V domains shown)
VH: EVQLVQSGAEVKKPGASVKVSCKTSGYTFTDHYIHWVRQAPGQGLEWMGWINPSSGGTEYAQKFQGRVTMTRDTPISTAYMDLSGLRSDDTAVYYCARETIGGWNALDVWGQGTTVTVSS
VL: QSVLTQPPSASGSPGQRVTMSCSGSSSTIGRHSVNWYQQLPGTAPKLLIYANNQRPSGVPGRFSASKSDTSASLAISGLRSEDEANYYCAAWDDSLSGVLFGGGTKVTVLG
- Kd [1]: 0.42 nM
- binding result [2]: binds
- EC50 [3]: 16.8 nM

B8: mAb #10-116 (antibody, V domains shown)
VH: EVQLVQSGADVKKPGASVKVSCKASGYTFTGYYIHWVRQAPGQGLEWMGWINPNSGGTNYAQKFQGRVTMTRDTSISTAYMELSRLRSDDTAVYFCVREVKDYYYYMDVWGRGTTVTVSS
VL: NFMLTQPHSVSESPGKTVTISCTRSSGSIASNSVQWYLQRPGSAPTTLIFDNKQRPSGVPDRFSGSIDSSSNSASLSISGLTTEDEADYFCQSYDDSEQVVFGGGTKLTVLS
- Kd [1]: 4.77 nM
- binding result [2]: binds
- EC50 [3]: 28.3 nM

B9: mAb 3-167 (antibody, V domains shown)
VH: EVQLVQSGSELKKPGASVKVSCKASGYTFTGYYMHWVRQAPGQGLEWMGWINPNSGGTNYAQKFQGRVTVTTDTSTSTAYMELRSLRSDDTAVYYCAREGVHSDAFDVWGQGTTVTVSS
VL: ETTLTQSPATLSVSPGERATLSCRASQSVYTNLAWYQQKPGQAPSLLIYGASSRATGIPDRFSGSGSGTDFTLTISRLEPEDFAVYYCQQYGSSHFTFGPGTKVDIK
- Kd [1]: 0.855 nM
- binding result [2]: binds
- EC50 [3]: 28.2 nM

B10: mAb #11-126 (antibody, V domains shown)
VH: EVQLVESGAEVKKPGASVKVSCKASGYTFTGYYMHWVRQAPGQGLEWLGWVNPHSGGTNYAQKFQGRVTMTRDTSISTAYMELSRLRSDDTAVYYCARETDISANYHFDYWGQGTLVTVSS
VL: QSALTQPASVSGSPGQSITISCTGTSSDVGSYNAVSWYQHHPGKAPKLMIYEVSKRPSGVSNRFSGSKSGNTASLTISGLRAEDEADYYCATWDDSLKGPVFGGGTKLTVLG
- Kd [1]: 2.8 nM
- binding result [2]: binds
- EC50 [3]: 13 nM

B11: mAb #1-81 (antibody, V domains shown)
VH: EVQLVESGAEVKKPGASVKVSCKTSGYTFTDHYIHWVRQAPGQGLEWMGWINPSSGGTEYAQKFQGRVTMTRDTPISTAYMDLSGLRSDDTAVYYCARETIGGWNALDVWGQGTLVTVSS
VL: QPVLTQPPSASGTPGQRVTISCSGSSSNIGINTVNWYQQLPRTPPKLLIYTNNQRPSGVPDRFSGSKSDTSASLAISGLQSEDEADYYCAAWDDTLNGPLFGGGTKVTVLG
notes: Found as scFv by phage display
- Kd [1]: 1.66 nM
- binding result [2]: binds
- EC50 [3]: 22.4 nM
